Test results from the RNAGym collection of RNA variant scans (doi:10.1073/pnas.2313332121).
This sample holds only a part of the variants without activity.

B1: TPR 5TU (parent)
chain: GGAUCUUCUCGAUCUAACAAAAAAGACAAAUCUGCCACAAAGCUUGAGAGCAUCUUCGGAUGCAGAGGCGGCAGCCUUCGGUGGCGCGAUAGCGCCAACGUUCUCAACUAUGACACGCAAAACGCGUGCUCCGUUGAAUGGAGUUUAUCAUG

Variants of: B1
Assay: polymerase ribozyme fitness, log enrichment relative to wild type (log ratio); higher = more active; in vitro selection for triplet polymerase activity
Method in brief: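 For each subunit of a heterodimeric triplet polymerase ribozyme, a mutant library was built by PCR and transcribed, then taken through a single in vitro selection round in triplicate. Selection involved annealing to a biotinylated primer, the partner subunit and triplets, incubation frozen at −7 °C, gel excision of extended constructs, capture on streptavidin beads and RT-PCR. Genotypes were retained after Illumina sequencing of inputs and outputs only with ≥10 input reads and ≥1 read in each output. Fitness is defined as the logarithm of a genotype's enrichment relative to wild-type enrichment, using inverse-variance-weighted averages across replicates, with the logarithm taken to base 2.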

Variant	polymerase ribozyme fitness (log ratio)
GGAUCUUCUCGAUCUAACAAAAAAGACAAAUCUGCCACAAAGCUUGAGAGCAUCUUCGCAUGCAGAGGAGGCAGCCUUCGGUGGCGCGAUAGCGCCAACGUUCUCAACUAUGACACGCAAAACGCGUGCUCCCUUGAAUGGAGUUUAUCAUG [G59C C69A G133C]	-1.75
GGAUCUUCUCGAUCUAACAAAAAAGACAAAUCUGCCACAAAGCUUGAGAGCAUCUUCGAAUGCAGAGGCGGCAGCCUUCGGUGGCGCGAUAGCGCCAACGUUCUCAACUAUGACACGCAAAACGCGUGCUCCGUUGAAUCGAGGUUAUCAUG [G59A G140C U144G]	-3.79
GGAUCUUCUCGAUCUAACAAAAAAGACAAAUCUGCCACAAAGCUUGAGAGCAUCUUCGCAUGUAGAGGCGGCAGCCUUCGGUGGCGUGAUAGCGCCAACGUUCUCAUCUAUGACACGCAAAACGCGUGCUCCGUUGAAUGGAGUUUAUCAUG [G59C C63U C87U A107U]	-3.81
GGAUCUUCUCGAUCUAACAAAAAAGACAAAUCUGCCACAAAGCUUGAGAGCAUCUUCGAAUGCAGAGGCGGCAGCCUUCGGUGGCGCGAGAGCGGCAACGUUCUCAACUAUGACACGCAAAACGCGUGCUCCGUUGAAUGGAGUUUAUCAUG [G59A U90G C95G]	≤ -4.2
GGAUCUUCUCGAUCUAACAAAAAAGACAAAUCUGCCACAAAGCUUGAGAGCAUCUUCGCAUGCAGAGGCGGCAGCCUUCGGUGGCGCGAUAGCGCCAACGUUCUCAACUAUGACACGCAAAACGCGUGCUCCGUUGAAUGGAGUUUCUCAUG [G59C A147C]	-0.516
GGAUCUUCUCGAUCUAACAAAAAAGACAAAUCUGCCACAAAGCUUGAGAGCAUCUUCGAAUGCAGAGGCGGCAGCCUUCGGUGGCGCGAUAGCGCCAACGUUCUCAACUAUGACACGCAAAACGCGCGCUCCGUUGAAUGGAGUUUAUCAUG [G59A U127C]	-1.23
GGAUCUUCUCGAUCUAACAAAAAAGACAAAUCUGCCACAAAGCUUGAGAGCAUCUUCGAAUGCAGAGGCGGCAGCCUUCGGUGGCGCGAUAGCACCAACGUUCUCAACUAUGACACGCAAAACGCGUGCUCCGUUGAAUGGAGUUUAUCCUG [G59A G94A A150C]	≤ -4.2
GGAUCUUCUCGAUCUAACAAAAAAGACAAAUCUGCCACAAAGCUUGAGAGCAUCUUCGAAUGCAGAGGCGGCAGCCUUCGGUGGCGCGAUAGCCCCAACGUUCUCAACUAUGACACGCAAAACGCGUGCUCCGUUGAAUGGAGUUUAUCAUG [G59A G94C]	-0.903
GGAUCUUCUCGAUCUAACAAAAAAGACAAAUCUGCCACAAAGCUUGAGAGCAUCUUCGAAUGCAGAGGCGGCAGCCUCCGGUGGCGCUAUAGCGCUAACGUUCUCAACGAUGACACGCAAAACGCGUGCUCCGUUGAAUCGAGUUUAUCAUG [G59A U78C G88U C96U U109G G140C]	≤ -4.2
GGAUCUUCUCGAUCUAACAAAAAAGACAAAUCUGCCACAAAGCUUGAGAGCAUCUUCGAAUGCAGAGGCGGCAGCCUGCGGUGGCGCGAUUGCGCCAACGUGCUCAACUAUGACACGCAAAACGCGUGCUCCGUUGAAUGGAGUUUAUCAUG [G59A U78G A91U U102G]	≤ -4.2
GGAUCUUCUCGAUCUAACAAAAAAGACAAAUCUGCCACAAAGCUUGAGAGCAUCUUCGCAUGCAGAGGCGGCAGCCUUCGGUGGCGCGUUACCGCCAACGUUCUCAACUAUGACACGCAAGACGCGUGCUCCGUUGAAUGGAGUUUAUCAUG [G59C A89U G92C A121G]	-2.45
GGAUCUUCUCGAUCUAACAAAAAAGACAAAUCUGCCACAAAGCUUGAGAGCAUCUUCGAAUGCAGAGGCGGCAGCCUUCGGUGGCGCGAUAGCGCCAACGUUCUCAACUAUGACACGCAAAACGCGUGCUCCGUUCAAUGGAGUUUAUCAUG [G59A G136C]	-2.89
GGAUCUUCUCGAUCUAACAAAAAAGACAAAUCUGCCACAAAGCUUGAGAGCAUCUUCGCAUGCAGAGGCGGCAGCCUUCGGUGGCGCGAUAGCGCCUACGUUCUCAACUAUGACACGCAAAACGCGUGCUCCGUUGAAUGGAGUUUAUCAUG [G59C A97U]	-0.431
GGAUCUUCUCGAUCUAACAAAAAAGACAAAUCUGCCACAAAGCUUGAGAGCAUCUUCGCAUGCAGAGGCGGCAGCCUUCGGUGGCGCGAUAGCGCCAACGUUCUCUACUAUGACACGCAAAACGCGUGCUCCGUUGAAUGGAGUUUAUCAUG [G59C A106U]	-0.917
GGAUCUUCUCGAUCUAACAAAAAAGACAAAUCUGCCACAAAGCUUGAGAGCAUCUUCGCAUGCAGAGGCGGCAGCCUUCGGUGGCGCGUUAGCGCGAACGUUCUCAGCUAUGACACGCAAAACGCGUGCUCCGUUGAAUGGAGUUUAUCAUG [G59C A89U C96G A107G]	≤ -4.2
GGAUCUUCUCGAUCUAACAAAAAAGACAAAUCUGCCACAAAGCUUGAGAGCAUCUUCGCAUGCUGAGGCGGCAGUCUUCGGUGGCGCGAUAGCGCCAACGUUCUCAACUAUGACACGCAAAACGCGUGCUCUGUUGAAUGGAGUUUAUCAUG [G59C A64U C75U C132U]	≤ -4.2
GGAUCUUCUCGAUCUAACAAAAAAGACAAAUCUGCCACAAAGCUUGAGAGCAUCUUCGCGUGCAGAGGUGGCAGCCUUCGGUGGCGCGAUAGCGCCAACGUUCUCAACUAUGACACGCAAAACGCGUGCUCCGUUGAAUGGAGUUUAUCAUG [G59C A60G C69U]	-2.47
GGAUCUUCUCGAUCUAACAAAAAAGACAAAUCUGCCACAAAGCUUGAGAGCAUCUUCGCAUGCAGAGGCGGCAGCCUUCGGUGGCGCGAUAGCGCCAACGUUCUCAUCUAUGACACGCAAAACGCGUGCUCCGUUGAAUGGAUUUUAUCAUG [G59C A107U G143U]	≤ -4.2
GGAUCUUCUCGAUCUAACAAAAAAGACAAAUCUGCCACAAAGCUUGAGAGCAUCUUCGCAUGCAGAGGCGGCAGCCUUCGGUGGCGCGAUAGCGCCAUCGUUCUCAACUAUGACACGCAAAACGAGUGCUCCGUUGAAUCGAGUUUAUCAUG [G59C A98U C125A G140C]	≤ -4.2

Variant	polymerase ribozyme fitness (log ratio)
GGAUCUUCUCGAUCUAACAAAAAAGACAAAUCUGCCACAAAGCUUGAGAGCAUCUUCGCAUGCAGAGGCGGCAGCAUUCGGUGGCGUGAUAGCGCCAACGUUCUCAACUAUGACACGCAAAACGCGUGCUCCGUUGAAUGGAGUUUCUCAUG [G59C C76A C87U A147C]	-2.29
GGAUCUUCUCGAUCUAACAAAAAAGACAAAUCUGCCACAAAGCUUGAGAGCAUCUUCGAAUGCAGAGGCGGCAGCCUUCGGUGGCGCGAUAGCGCCAACGUUCUCAACUAUGACACGCAAAACUGGUGCUCCGUUUAAAGGAGUUAAUCAUG [G59A G124U C125G G136U U139A U146A]	≤ -4.2
GGAUCUUCUCGAUCUAACAAAAAAGACAAAUCUGCCACAAAGCUUGAGAGCAUCUUCGCAUGCAGAGGCGGCAGCCUUCGGUGGUGCGAUAGCGCCAACGUUCUCAACUAUGACACGCAAAACGCGUGCUCCGUUGAAUGGAGUUUAUCAUG [G59C C85U]	-0.507
GGAUCUUCUCGAUCUAACAAAAAAGACAAAUCUGCCACAAAGCUUGAGAGCAUCUUCGAAUGCAGAGGCGGCAGCCUUCGGUGGCGCUAUAGCGCCAACGUUCUCAACUAUGACACGCAAAACGCGUGCUCCGUUGAAUGGAGUUUAUCAUG [G59A G88U]	-3.96
GGAUCUUCUCGAUCUAACAAAAAAGACAAAUCUGCCACAAAGCUUGAGAGCAUCUUCGCAUGCAGAGGCGGCAGCCUUCGGUGGGGCGAUAGCGUCAACGUUCUCAACUAUGACAAGCAAAACGCGUGCUCCGUUGAAUGGAGUUUAUCAUG [G59C C85G C95U C116A]	-2.38
GGAUCUUCUCGAUCUAACAAAAAAGACAAAUCUGCCACAAAGCUUGAGAGCAUCUUCGCAUGCAGAGGCGGCAGCCUUCGGUGGCGCGAUAGCGCCAACGUUCUCAACUAUGACACGCCAAACGCGUGCUCCGUUGAAUGGAGUUUAUCAUG [G59C A119C]	-0.18
GGAUCUUCUCGAUCUAACAAAAAAGACAAAUCUGCCACAAAGCUUGAGAGCAUCUUCGCAUGCAGAGGCGGCAGCCUUCGGUGGCGCGCUAGUGCCAACGUUCUCAACUAUGACACCCAGAACGCGUGCUCCGUAGAAUGGAGUUUAUCAUG [G59C A89C C93U G117C A120G U135A]	-3.35
GGAUCUUCUCGAUCUAACAAAAAAGACAAAUCUGCCACAAAGCUUGAGAGCAUCUUCGCAUGCAGAGGCGGCAGCCUUCGGUGGCGCGAUAGCGCCAACGUUCUCAACUAUGACACGCAAAACGCGUGCUCCGUUGAAUGGAGUUUAUCAUG [G59C]	0.0972
GGAUCUUCUCGAUCUAACAAAAAAGACAAAUCUGCCACAAAGCUUGAGAGCAUCUUCGAAUGCAGAGGCGGCAGCCUUCGGCGGCGCGAUAGCGCCAACGUUCUCAACUAUGACACGCAAAACGCGUGCUCCGAUGAAUGGAGUUUAUCAUG [G59A U82C U134A]	-2.59
GGAUCUUCUCGAUCUAACAAAAAAGACAAAUCUGCCACAAAGCUUGAGAGCAUCUUCGAAUGCAGAGGCGGCAGCCUACGGUGGCGCGAUAUCGCAAACGUUCUCAACUAUGAUACGCAAUACGCGUGCUCCGUUGAAUGGAGUUUAUCAUG [G59A U78A G92U C96A C114U A121U]	≤ -4.2
GGAUCUUCUCGAUCUAACAAAAAAGACAAAUCUGCCACAAAGCUUGAGAGCAUCUUCGCAUGCAGAGGCGGCAGCCUUCGGUGGCGCGAUAGCGCCAACGUUCUCAACUAUGACACGCAUACCGCGUGCUCCGUUGAAUGGAGUUUGUCAUG [G59C A120U A122C A147G]	-1.22
GGAUCUUCUCGAUCUAACAAAAAAGACAAAUCUGCCACAAAGCUUGAGAGCAUCUUCGCAUGCAGAGGCGGCAGCCUUCGGUGGCGCGAUAGCGCCUACGUUCUCAACUAUGACACGCAAAACGCGUGCUCCGUUGAAGGGAGUUUAUCAUG [G59C A97U U139G]	-0.518
GGAUCUUCUCGAUCUAACAAAAAAGACAAAUCUGCCACAAAGCUUGAGAGCAUCUUCGAAUGCAGAGGCGGCAGCCUUCGGUGGCGCUAUAGCGCCAACGUUCUCAACUAUGACAGGCAAAACGCGUGCUCCGUUGAAUGGAGUUUAUCAUG [G59A G88U C116G]	-3.56
GGAUCUUCUCGAUCUAACAAAAAAGACAAAUCUGCCACAAAGCUUGAGAGCAUCUUCGCCUGCAGAGGCGGCAGCCAUCGGUGGAGCGAUAGCGCCAACGUUCUCAACUAUGACACGCAAAACGCGUGCUCCGUUGAAUAGAGCUUAUCAUG [G59C A60C U77A C85A G140A U144C]	≤ -4.2
GGAUCUUCUCGAUCUAACAAAAAAGACAAAUCUGCCACAAAGCUUGAGAGCAUCUUCGCAUGCAGAGGCGGCAGCCUUUGGUGGCGCGAUAGCGCCAACGUUCUCAACUAUGACACGCAAAACGCGUGCUCCGUUGAAUGGAGUUUAUCAUG [G59C C79U]	-3.43
GGAUCUUCUCGAUCUAACAAAAAAGACAAAUCUGCCACAAAGCUUGAGAGCAUCUUCGCAUGCAGAGGCGGCAGCCUUCGGUGGCGCGAUAGCGCCAACGUUCUCAACUAUGACACGCAAAACGCGUGCUCCGUUGAAUGGCGUUUAUCAUG [G59C A142C]	-0.57
GGAUCUUCUCGAUCUAACAAAAAAGACAAAUCUGCCACAAAGCUUGAGAGCAUCUUCGCAUGCAGAGGCGGCAGCCUUCGGUGGCGCGAUAGCGCCAACGUUCUCAACUGUGACACGCAAAACGCGUGCUCCGUUGAAUGGAGUUUAUCAUG [G59C A110G]	-3.79
GGAUCUUCUCGAUCUAACAAAAAAGACAAAUCUGCCACAAAGCUUGAGAGCAUCUUCGAAUGCAGAGGCGGCAGCCUUCGGUGGCGCGAUAUCGCCAACGUUCCCAACUAUGACACGCAACACGCGUGCUCCGUUGAAUGGAGUUUAUCAUG [G59A G92U U104C A121C]	-2.09
GGAUCUUCUCGAUCUAACAAAAAAGACAAAUCUGCCACAAAGCUUGAGAGCAUCUUCGAAUGCAGAGGCGGCAGCCUUCGGUGGCGCGAUAUCGCCAACGUUCUCAACUAUGAAACGCUAAACGCGUGCUCCGUUGAAUGGAGUUUAUCAUG [G59A G92U C114A A119U]	-3.59
